Measurements published in publication PMC4967302.

Columns and labels:
[1] = target: CCR5 in crude membranes from CCR5-expressing HEK 293T cells (UniProt P51681); assay: radioligand binding; equilibrium saturation binding of 35S-labeled gp120 to crude membranes from CCR5-expressing HEK 293T cells, room temperature, in the presence of 200 nM soluble CD4; non-specific binding measured with 10 µM maraviroc; one-site binding model
[2] = target: CD4 exposed at the surface of HEK 293T cells (UniProt P01730); assay: flow cytometry on cells

Chain of UniProt P51681 (P51681 whole entry): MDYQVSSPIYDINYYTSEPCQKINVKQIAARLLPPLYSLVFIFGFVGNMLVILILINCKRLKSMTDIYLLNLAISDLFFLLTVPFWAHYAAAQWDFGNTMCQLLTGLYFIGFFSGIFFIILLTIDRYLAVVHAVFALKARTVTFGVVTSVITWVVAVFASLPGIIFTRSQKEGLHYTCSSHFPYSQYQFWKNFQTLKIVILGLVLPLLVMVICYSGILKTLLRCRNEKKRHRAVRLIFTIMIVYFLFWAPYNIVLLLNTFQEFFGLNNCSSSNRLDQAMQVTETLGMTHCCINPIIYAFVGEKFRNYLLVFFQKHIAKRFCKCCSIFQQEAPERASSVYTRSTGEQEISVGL

## purified soluble wt B gp120 (domain or fragment)
[1]
  Kd: 8.4 nM
[2]
  Ki: 3.9 nM
